# According to patent publication US20250270343A1 (Alector, published 2025):
# T1: full-length untagged human GPNMB expressed on cells (human, UniProt Q14956 23-572)
# T1 construct: also used here for GPNMB on human monocyte-derived macrophages in the functional assays; also called huGPNMB; Freestyle293-huGPNMB+
# T1 sequence: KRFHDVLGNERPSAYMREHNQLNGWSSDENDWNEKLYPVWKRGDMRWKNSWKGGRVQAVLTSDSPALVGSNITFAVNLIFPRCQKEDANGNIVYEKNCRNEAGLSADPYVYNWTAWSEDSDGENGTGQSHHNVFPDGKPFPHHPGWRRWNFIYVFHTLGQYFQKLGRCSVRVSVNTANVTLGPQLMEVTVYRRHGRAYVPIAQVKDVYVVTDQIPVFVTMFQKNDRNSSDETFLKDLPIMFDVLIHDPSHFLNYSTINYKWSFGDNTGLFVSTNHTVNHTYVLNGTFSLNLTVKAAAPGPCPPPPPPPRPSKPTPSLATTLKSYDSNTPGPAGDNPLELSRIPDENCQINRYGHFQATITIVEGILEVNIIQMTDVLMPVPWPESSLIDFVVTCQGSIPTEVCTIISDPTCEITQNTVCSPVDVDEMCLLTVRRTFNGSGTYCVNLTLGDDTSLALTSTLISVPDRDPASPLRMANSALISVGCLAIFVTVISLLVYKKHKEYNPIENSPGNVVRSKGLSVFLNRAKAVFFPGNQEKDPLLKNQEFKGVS
# T2: soluble cynomolgus GPNMB (recombinant extracellular domain) (cynomolgus, UniProt Q14956 23-499 (human entry), limits assumed)
# T2 chain: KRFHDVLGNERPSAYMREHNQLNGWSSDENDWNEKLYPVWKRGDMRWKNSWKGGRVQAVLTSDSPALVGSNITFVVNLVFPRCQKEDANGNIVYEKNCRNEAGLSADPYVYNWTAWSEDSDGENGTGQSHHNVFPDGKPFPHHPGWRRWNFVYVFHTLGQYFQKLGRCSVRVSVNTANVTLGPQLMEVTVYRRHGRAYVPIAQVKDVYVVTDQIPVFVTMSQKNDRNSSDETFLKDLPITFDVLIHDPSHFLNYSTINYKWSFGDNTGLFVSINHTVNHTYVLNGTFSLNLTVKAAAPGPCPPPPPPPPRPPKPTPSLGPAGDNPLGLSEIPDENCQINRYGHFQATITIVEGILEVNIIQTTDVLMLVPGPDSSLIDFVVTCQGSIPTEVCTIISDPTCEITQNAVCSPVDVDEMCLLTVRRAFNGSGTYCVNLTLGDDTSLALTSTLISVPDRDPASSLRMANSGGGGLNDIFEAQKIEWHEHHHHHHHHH
# Key:
# [1] = target: T1, full-length untagged human GPNMB …; test: FACS, FS293-huGPNMB+ cells
# Description: Recombinant anti-GPNMB antibodies of the present disclosure were examined for their ability to bind human and/or mouse GPNMB expressed on Freestyle293-huGPNMB+ or B16F10 cells, respectively. B16F10 cells are a murine melanoma cell line from a C57BL/6J mouse that endogenously express high levels of mouse GPNMB. The antibodies were also tested for their ability to bind to a human macrophage cell line (U937 cells) engineered to express human GPNMB. Cells were harvested, plated at 100,000 cells/well in a 96-well round bottom plate, and incubated in 100 μl FACS buffer (PBS containing 2% FBS, 2 mM EDTA) containing anti-GPNMB monoclonal antibodies of the present disclosure for 30 minutes on ice. Cells were then washed and incubated in 100 ul FACS buffer containing 1 μg/ml APC-conjugated anti-human IgG secondary antibody for 30 minutes in ice. Cells were washed twice in cold FACS buffer and acquired on a BD FACS Canto. Data analysis and calculation of MFI values was performed with FlowJo (TreeStar) software version 10.0.7.
# Importantly, several anti-GPNMB antibodies of the present disclosure also bound to the human macrophage cell line U937 cells engineered to express human GPNMB (U937/huGPNMB+) (FIG. 2C). In FIG. 2C, the first data point in each pair corresponds to U937/huGPNMB+ cells, and the second data point in each pair corresponds to U937/huGPNMB− cells. No anti-GPNMB antibodies bound to U937 cells deficient in human GPNMB expression (U937/huGPNMB−).
# [2] = target: T2, soluble cynomolgus GPNMB (recombinant …); test: SPR binding
# Description: Binding kinetics of human anti-GPNMB IgG1 antibodies of the present disclosure to human, cynomolgus, and mouse GPNMB were evaluated using a Carterra LSA instrument (Carterra, Salt Lake City, UT). […] A HC200M sensor chip (Carterra) was activated using the single channel flow cell with a 7-minute injection of a 1:1:1 mixture of 100 mM MES pH 5.5, 100 mM sulfo-NHS, 400 mM EDC (all reconstituted in MES pH 5.5; 100 μl of each mixed in vial immediately before running assay). After switching to the multi-channel array flow cell, the antibodies were injected over the activated chip in a 96-spot array for 15 minutes. The remaining unconjugated active groups on the chip were then blocked by injecting 1M Ethanolamine pH 8.5 (Carterra) for 7 minutes using the single channel flow cell.
# After priming with running buffer (HBS-EP+, Teknova) with 0.5 mg/ml BSA (Sigma), the immobilized anti-GPNMB antibodies were tested for their ability to bind to several forms of recombinant GPNMB extracellular domain, including human, cynomolgus, and mouse orthologs as described above. Estimates of affinity were generated by injecting each analyte over the entire antibody array using the single channel flow cell. GPNMB analytes were diluted to 2.5, 7.4, 22, 67, 200, and 600 nM in running buffer, and injected in serial from lowest to highest concentration without regeneration. Two buffer blanks were run between each series (one species per series). Data were processed and analyzed using Kinetics high-throughput kinetics analysis software (Carterra).
# [3] = target: T1, full-length untagged human GPNMB …; test: FACS titration, FS293-huGPNMB+ cells
# Description: Cell-based binding measurements were also performed to measure the apparent affinities of anti-GPNMB antibodies of the present disclosure to cell-surface expressed GPNMB. Serial dilutions of the monoclonal anti-GPNMB antibodies were added to 100,000 Freestyle293-huGPNMB+ or B16F10 cells and allowed to achieve binding equilibrium at 4° C. After addition of fluorescently labeled secondary antibody and brief washing steps, MFI values as a function of titrated antibody concentration was recorded via FACS analysis. Curves were fit using nonlinear regression analysis with Graphpad Prism 6 software.
# [4] = target: T2, soluble cynomolgus GPNMB (recombinant …); test: SPR Carterra, Ab immobilized
# Procedure, shortened: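 Antibodies amine-coupled on HC200M chip in a 96-spot array; recombinant GPNMB ECD analytes injected at 2.5–600 nM, lowest to highest, without regeneration. Running buffer HBS-EP+ with 0.5 mg/ml BSA; two buffer blanks between species series. Kinetics fitted to yield affinity estimates.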
MFI fold over background [1],binding result [2],EC50 [3],Kd [4],koff [4],kon [4],Binder
23.6 fold,binds,3.88 nM,–,–,–,"anti-GPNMB antibody GPN-41 (antibody, human IgG1, V domains shown, chimeric) VH: QLQLQQSGTEVVKPGASVKIPCKASGYAFSSYWMNWVKQRPGKGLEWIGQIYPGDGDTNDNGKFEGKATLTVDKSSNTAYIQLSSLTSEDSAVYFCARSPLHLRGSMDYWGQGTSVTVSS VL: SIVMTQTPKFLLVSAGDRVTITCKASQSVSNDVAWFQQKPGQSPELLIYSASNRYTGVPDRFTASGYGTDFTFTISAVQAEDLAVYFCQQNYYSPFTFGGGTRLEIK"
8.1 fold,binds,2.6 nM,–,–,–,"anti-GPNMB antibody GPN-65 (antibody, human IgG1, V domains shown, chimeric) VH: QLQLQQSGTEVVKPGASVKIPCKASGYAFSSYWMNWVKQRPGKGLEWIGQIYPGDGDTNDNGKFEGKATLTVDKSSNTAYIQLSSLTSEDSAVYFCARSPLHLRGSMDYWGQGTSVTVSS VL: SIVMTQTPKFLLVSAGDRVTITCKASQSVSNDVAWFQQKPGQSPELLIYSASNRYTGVPDRFTGSGYGTDFTFTISTVQAEDLAVYFCQQNYYSPFTFGGGTRLEIK"
–,binds,–,–,–,–,"anti-GPNMB antibody GPN-43 (antibody, human IgG1, V domains shown, chimeric) VH: EVQLQQSGPELVKPGASVKISCKASGYTFTDYYMNWVRQSHGKSLEWIGDINPYHGGSTYNQKIKVKATLTVDKSSSTAYMELRSLTSEDSAVYYCARNWPYFDYWGQGTTLTVSS VL: DIQMTQSPASLSASVGETVTITCRASENIYSFLVWYQQKQGKSPQLLVYNAKTLAEGVPSRFSGSGSGTQFSLKISSLQPEDFGSYYCQHHFGTPPYTFGGGTKLEIK"
20.7 fold,binds,0.99 nM,–,–,–,"anti-GPNMB antibody GPN-38 (antibody, human IgG1, V domains shown, chimeric) VH: QVQLQQPGAELVRPGTSVRLSCKASGYTFTSYWIHWVKQRPGRGLEWIGVIDPSDSYTNYNQQFNVKATLTVDTSSSAAYMQLSSLTSEDSAVYYCARGLITAVNWYFDVWGTGTTVTVSS VL: DIQMTQSPASLSTSVGEIVTITCRASENIYSYLTWYQQKQGKSPQLLVYNAKTLAEGVPSRFSGSGSGTQFSLKINSLQPEDFGTYYCQHHYGTPLTFGSGTKLEIK"
7.6 fold,–,1.27 nM,40.1 nM,0.0036 s⁻¹,90000 M⁻¹ s⁻¹,"anti-GPNMB antibody GPN-52 (antibody, human IgG1, V domains shown, chimeric) VH: DVQLQESGPGLVKPSQTVFLTCTVTGISITTGNYRWSWIRQFPGNKLEWIGYIYYSGTITYNPSLTSRITITRDTPKNEFFLEMNSLTAEDTATYYCARDLTHWYFDVWGTGTTVTVSS VL: not shown"
18.6 fold,–,7.25 nM,47.9 nM,0.0041 s⁻¹,86000 M⁻¹ s⁻¹,"anti-GPNMB antibody GPN-61 (antibody, human IgG1, V domains shown, chimeric) VH: DVQLQESGPGLVKPSQTVFLTCTVTGISITTGNYRWSWIRQFPGNKLEWIGYIYYSGTITYNPSLTSRTTITRDTPKNQFFLEMSSLTAEDTATYFCARDLRHWYFDVWGTGTTVTVSS VL: not shown"
9.7 fold,binds,18.8 nM,–,–,–,"anti-GPNMB antibody GPN-48 (antibody, human IgG1, V domains shown, chimeric) VH: QVQLQQSGPELVKPGASVKLSCRASGYGFSSFWMNWVKQRPGKGLEWIGRIYPGKGDTLYNGKFKDKATLTADESSSTAYMQLSSLTSEDSAVYFCARSIYYYDYWYFDVWDTGTTVTVSS VL: DIVMTQSHKFMSTSVGDRVNITCKASQDVNSAIAWYQQKPGQSPKLLIYSASYRFIGVPDRFTGSGSGTGFTFTISSVQAEDLAVYYCQQHYTTPLTFGAGTKLELK"
89.2 fold,–,3.38 nM,38.7 nM,0.0021 s⁻¹,54000 M⁻¹ s⁻¹,"anti-GPNMB antibody GPN-03 (antibody, human IgG1, V domains shown, chimeric) VH: QVQLQQSGPELVKPGASVKLSCKASGYTFTNYYMYWVKQRPGQGLEWIGEINPRNGGTNFNEKFKSKATLTVDKSSSTAYMQLSSLTFEDSAVYYCTTGLAYWGQGTLVTVSA VL: DVVMTQTPLSLPVSLGDQASISCRSSQSLVHSDGNTYLHWYLQKPGQSPKLLIYKVSTRFSGVPDRFSGSGSGTDFTLKISRVEAEDLGVYFCSQSTHVPWTFGGGTKLEIK"
66.4 fold,–,1.61 nM,97.9 nM,0.0021 s⁻¹,21000 M⁻¹ s⁻¹,"anti-GPNMB antibody GPN-06 (antibody, human IgG1, V domains shown, chimeric) VH: QVQLQQSGAELVKPGASVKLSCKASGYTFTNYYMYWVKQRPGQGLEWIGEINTRNGGTNFNEKFKSKATLTVDKSSSTAYMQLSSLTSEDSAVYYCTTGFAYWGQGTLVTVSA VL: DIQMTQSPASLSASVGETVTITCRASENIYSYLVWYQQNQGKSPQLLVYNAKTLAEGVPSRFSGSGSGTQFSLKINSLQPEDFGTYYCQHHYGTPFTFGSGTKLEIK"
–,binds,–,–,–,–,"anti-GPNMB antibody GPN-42 (antibody, human IgG1, V domains shown, chimeric) VH: DVKLVESGEDLVKPGGSLKLSCAASGFTFSSYAMSWVRQTPEKRLEWVAYISSGGDYIYYADTVKGRFTISRDNARNTLYLQMSSLKSEDTAMYYCTRDRYYDYDVRDYYTMDYWGQGTSVTVSS VL: DVMMTQTPLSLPVSLGDQASISCRSSQSLVHSNGNTYLHWFLQKPGQSPKLLIFRVSNRFSGVPDRFSGRGSGTDFTLKISRVEAEDLGVYFCSQTTHVPRTFGGGTTLEIK"
